Measurements from patent US9962447.

Experiments:
Assay in all cases: cell-based or functional assay
[1] = target: human NOP recombinant receptor (N/OFQ peptide receptor) (human) (UniProt P41146)
[2] = target: human KOP receptor (human) (UniProt P41145)
[3] = target: human DOP receptor (human) (UniProt P41143)
[4] = target: human MOP receptor (human) (UniProt P35372)
[5] = target: native mouse NOP receptor (mouse vas deferens) (mouse) (UniProt P35377)
native mouse NOP receptor (mouse vas deferens) (mouse), sequence (P35377 whole entry): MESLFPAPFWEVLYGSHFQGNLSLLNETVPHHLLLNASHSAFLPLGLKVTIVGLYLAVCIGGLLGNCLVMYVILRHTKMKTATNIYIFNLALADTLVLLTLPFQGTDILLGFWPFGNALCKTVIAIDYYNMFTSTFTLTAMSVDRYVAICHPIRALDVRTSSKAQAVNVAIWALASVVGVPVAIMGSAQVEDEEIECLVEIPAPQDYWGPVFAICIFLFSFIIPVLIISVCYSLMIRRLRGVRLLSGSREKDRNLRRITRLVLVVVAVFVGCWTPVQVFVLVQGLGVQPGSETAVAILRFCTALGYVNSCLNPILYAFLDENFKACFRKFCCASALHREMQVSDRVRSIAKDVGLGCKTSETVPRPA

human DOP receptor (human), sequence (P41143 whole entry): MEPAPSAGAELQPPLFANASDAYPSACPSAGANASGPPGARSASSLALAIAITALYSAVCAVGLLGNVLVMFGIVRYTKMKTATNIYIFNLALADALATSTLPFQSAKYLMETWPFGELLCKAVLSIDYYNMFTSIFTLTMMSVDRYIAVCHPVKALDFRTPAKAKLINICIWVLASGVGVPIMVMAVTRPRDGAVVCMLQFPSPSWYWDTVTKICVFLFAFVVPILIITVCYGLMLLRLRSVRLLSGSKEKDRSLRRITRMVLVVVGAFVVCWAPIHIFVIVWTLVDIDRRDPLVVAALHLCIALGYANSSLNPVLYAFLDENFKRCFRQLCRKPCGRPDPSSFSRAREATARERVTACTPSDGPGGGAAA
human NOP recombinant receptor (N/OFQ peptide receptor) (human), sequence (P41146 whole entry): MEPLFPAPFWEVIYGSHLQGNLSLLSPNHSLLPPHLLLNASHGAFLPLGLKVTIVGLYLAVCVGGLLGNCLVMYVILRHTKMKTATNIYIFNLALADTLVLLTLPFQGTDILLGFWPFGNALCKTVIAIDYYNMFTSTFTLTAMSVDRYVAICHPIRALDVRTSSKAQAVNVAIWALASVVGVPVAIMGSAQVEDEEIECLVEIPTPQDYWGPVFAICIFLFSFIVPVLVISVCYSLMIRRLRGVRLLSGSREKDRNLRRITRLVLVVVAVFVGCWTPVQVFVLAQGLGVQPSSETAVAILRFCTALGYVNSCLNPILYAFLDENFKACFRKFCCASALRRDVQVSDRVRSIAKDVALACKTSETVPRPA
human KOP receptor (human), sequence (P41145 whole entry): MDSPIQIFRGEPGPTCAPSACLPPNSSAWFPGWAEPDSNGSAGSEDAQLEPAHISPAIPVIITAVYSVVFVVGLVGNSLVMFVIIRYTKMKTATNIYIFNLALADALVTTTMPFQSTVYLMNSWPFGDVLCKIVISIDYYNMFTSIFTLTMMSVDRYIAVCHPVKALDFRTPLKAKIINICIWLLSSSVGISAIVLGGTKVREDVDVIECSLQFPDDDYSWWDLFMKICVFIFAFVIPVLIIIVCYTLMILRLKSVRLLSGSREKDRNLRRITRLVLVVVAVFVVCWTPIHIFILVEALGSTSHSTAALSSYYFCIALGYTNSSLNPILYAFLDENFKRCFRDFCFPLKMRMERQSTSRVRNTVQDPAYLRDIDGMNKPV
human MOP receptor (human), sequence (P35372 whole entry): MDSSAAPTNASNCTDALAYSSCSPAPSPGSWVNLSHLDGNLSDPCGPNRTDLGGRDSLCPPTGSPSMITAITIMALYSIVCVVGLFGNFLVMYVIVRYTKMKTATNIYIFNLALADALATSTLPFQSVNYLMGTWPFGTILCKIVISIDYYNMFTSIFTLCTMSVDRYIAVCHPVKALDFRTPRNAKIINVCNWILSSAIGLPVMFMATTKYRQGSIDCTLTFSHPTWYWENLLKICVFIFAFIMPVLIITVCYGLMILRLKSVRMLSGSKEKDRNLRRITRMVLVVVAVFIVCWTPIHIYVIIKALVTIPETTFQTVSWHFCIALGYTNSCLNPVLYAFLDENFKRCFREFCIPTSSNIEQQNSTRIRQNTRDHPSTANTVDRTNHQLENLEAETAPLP

Substance	calcium mobilization, potency [1]	calcium mobilization, potency [2]	calcium mobilization, maximal effects [3]	calcium mobilization, pEC50 (pEC50 (-log10 M)) [3]	calcium mobilization, potency [4]	calcium mobilization, potency [3]	electrically stimulated mouse vas deferens, Emax (% inhibition of control twitch) [5]	electrically stimulated mouse vas deferens, pEC50 (pEC50 (-log10 M)) [5]	mouse vas deferens from NOP(+/+) mice, Emax [5]	mouse vas deferens from NOP(+/+) mice, pEC50 (pEC50 (-log10 M)) [5]	calcium mobilization, maximal effects [4]	calcium mobilization, pEC50 (pEC50 (-log10 M)) [4]
DPDPE (peptide)	> 1000 nM	> 1000 nM	86%	9.57	> 1000 nM							
dermorphin (peptide)	> 1000 nM	> 1000 nM				> 1000 nM					135%	
dynorphin A (from UniProt P01213 207-223) (peptide)	> 1000 nM											6.67

Further lines, with some results ahead:

calcium mobilization, potency [1]	calcium mobilization, potency [2]	calcium mobilization, maximal effects [3]	calcium mobilization, pEC50 (pEC50 (-log10 M)) [3]	calcium mobilization, potency [4]	calcium mobilization, potency [3]	electrically stimulated mouse vas deferens, Emax (% inhibition of control twitch) [5]	electrically stimulated mouse vas deferens, pEC50 (pEC50 (-log10 M)) [5]	mouse vas deferens from NOP(+/+) mice, Emax [5]	mouse vas deferens from NOP(+/+) mice, pEC50 (pEC50 (-log10 M)) [5]	calcium mobilization, maximal effects [4]	Substance	calcium mobilization, pEC50 (pEC50 (-log10 M)) [4]
	> 1000 nM			> 1000 nM	> 1000 nM	93	7.78	91%	7.92		PWT2-N/OFQ (supramolecular aggregate of the PWT2 maleimido core with [Cys18]N/OFQ-NH2) (from UniProt Q13519 20-176)	
	> 1000 nM			> 1000 nM	> 1000 nM	88	7.37	92%	7.68		nociceptin/orphanin FQ (N/OFQ) peptide (from UniProt Q13519 20-176)	
